According to patent EP4242303A1 (Novozymes A/S, dated 2023):
Where two headings read alike, the source gives them in different places.

T1: deamidase polypeptide from Chryseobacterium defluvii (deamidase domain of the fusion polypeptide SEQ ID NO: … (Chryseobacterium defluvii))
T1 chain: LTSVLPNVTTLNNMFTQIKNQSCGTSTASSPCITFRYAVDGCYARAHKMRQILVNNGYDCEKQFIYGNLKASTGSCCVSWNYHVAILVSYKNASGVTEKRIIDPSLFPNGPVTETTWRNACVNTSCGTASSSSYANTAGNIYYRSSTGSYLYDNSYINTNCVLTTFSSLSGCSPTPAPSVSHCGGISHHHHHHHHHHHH

T2: deamidase polypeptide from Chryseobacterium sp-62563 (deamidase domain of the pro-form SEQ ID NO: 5) (Chryseobacterium sp-62563)
T2 chain: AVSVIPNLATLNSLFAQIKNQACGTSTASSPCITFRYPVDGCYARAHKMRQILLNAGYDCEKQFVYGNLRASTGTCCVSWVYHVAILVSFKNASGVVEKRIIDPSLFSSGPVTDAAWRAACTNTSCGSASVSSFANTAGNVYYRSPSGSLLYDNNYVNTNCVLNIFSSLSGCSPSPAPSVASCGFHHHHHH

T3: deamidase polypeptide from Chryseobacterium culicis (deamidase domain of the fusion polypeptide SEQ ID NO: 15) (Chryseobacterium culicis)
T3 chain: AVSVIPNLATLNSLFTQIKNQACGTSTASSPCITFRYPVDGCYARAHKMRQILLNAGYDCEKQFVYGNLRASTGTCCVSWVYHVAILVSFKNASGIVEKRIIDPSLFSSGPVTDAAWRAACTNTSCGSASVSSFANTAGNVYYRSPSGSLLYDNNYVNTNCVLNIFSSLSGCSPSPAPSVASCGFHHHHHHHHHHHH

T4: deamidase polypeptide from Chryseobacterium gambrini (deamidase domain of the fusion polypeptide SEQ ID NO: … (Chryseobacterium gambrini))
T4 chain: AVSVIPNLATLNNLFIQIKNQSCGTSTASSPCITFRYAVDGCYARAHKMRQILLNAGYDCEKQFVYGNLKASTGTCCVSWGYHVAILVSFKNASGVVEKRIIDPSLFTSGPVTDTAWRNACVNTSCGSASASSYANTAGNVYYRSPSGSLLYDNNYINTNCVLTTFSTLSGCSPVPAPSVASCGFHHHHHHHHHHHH


Columns and labels:
Assay in all cases: cell-based or functional assay
[1] = target: T1, deamidase polypeptide from …
[2] = target: T2, deamidase polypeptide from …
[3] = target: T2, deamidase polypeptide from …
[4] = target: T2, deamidase polypeptide from …
[5] = target: T2, deamidase polypeptide from …
[6] = target: T3, deamidase polypeptide from …
[7] = target: T4, deamidase polypeptide from …

| Binder | Leakage activity [3] [%] | NanoDSF thermal unfolding temperature [4] [°C] | Relative activity of "activated" sample (% initial rate) [5] [%] | other results |
| --- | --- | --- | --- | --- |
| propeptide from Chryseobacterium defluvii (propeptide domain of the fusion polypeptide SEQ ID NO: 20) (other) ATNQDVVGKENTSNHVAARDFGKTVPVGINEENGTLKVSFILSAQFYEIKPSKENEEYISLIRQAIQNESPIHVFMKLNSNEIVKVEKGTEEDVKYFRSILTKEVKEENRK | – | – | – | NanoDSF thermal unfolding temperature [1]: 89 °C |
| propeptide from Chryseobacterium sp-62563 (wildtype propeptide domain of the protein glutamine deamidase pro-form SEQ ID NO: 5) (other) NQDPNLVAKESNETAMKDFGKTVPVGIEKEDGKFKISFMVTAQPYEIKDSKENAAYISMIKTAVENETPIHVFLKANTNEIAKVDKATDDDIRYFKSVFTKEVKEENRK | – | – | – | NanoDSF thermal unfolding temperature [2]: 85.3 °C |
| variant deamidase propeptide Y94P of Chryseobacterium sp-62563 (SEQ ID NO: 2) (other) NQDPNLVAKESNETAMKDFGKTVPVGIEKEDGKFKISFMVTAQPYEIKDSKENAAYISMIKTAVENETPIHVFLKANTNEIAKVDKATDDDIRPFKSVFTKEVKEENRK | 23 | 75.2 | ≥ 100 | – |
| variant deamidase propeptide F99A of Chryseobacterium sp-62563 (SEQ ID NO: 2) (other) NQDPNLVAKESNETAMKDFGKTVPVGIEKEDGKFKISFMVTAQPYEIKDSKENAAYISMIKTAVENETPIHVFLKANTNEIAKVDKATDDDIRYFKSVATKEVKEENRK | 20 | 76.4 | ≥ 100 | – |
| variant deamidase propeptide F99G of Chryseobacterium sp-62563 (SEQ ID NO: 2) (other) NQDPNLVAKESNETAMKDFGKTVPVGIEKEDGKFKISFMVTAQPYEIKDSKENAAYISMIKTAVENETPIHVFLKANTNEIAKVDKATDDDIRYFKSVGTKEVKEENRK | 20 | 74.1 | ≥ 100 | – |
| variant deamidase propeptide V23S of Chryseobacterium sp-62563 (SEQ ID NO: 2) (other) NQDPNLVAKESNETAMKDFGKTSPVGIEKEDGKFKISFMVTAQPYEIKDSKENAAYISMIKTAVENETPIHVFLKANTNEIAKVDKATDDDIRYFKSVFTKEVKEENRK | 10 | 69.8 | ≥ 100 | – |
| propeptide from Chryseobacterium culicis (propeptide domain of the fusion polypeptide SEQ ID NO: 15) (other) NQDPNLVAKESNEIAMKDFGKTVPVGIEKEEGKFKVSFMVSAQPYHIKDSKENAGYISMIRQAVENETPVHIFLKTNTNEIAKVDKPTDDDIRYFKSVFTKEVKEENRK | – | – | – | NanoDSF thermal unfolding temperature [6]: 85.2 °C |
| propeptide from Chryseobacterium gambrini (propeptide domain of the fusion polypeptide SEQ ID NO: 10) (other) NQDPNLVVKENNENAMRDFGSTIPVGIQKEGNVLKVSFIISAQFYEIKDSKENEAFISMIKSAIENETPVHVFLKKNSNEIAKVEKATDEDVTYFKSIFTKEVKEENRK | – | – | – | NanoDSF thermal unfolding temperature [7]: 89.3 °C |

More lines, main results first:

| Leakage activity [3] [%] | NanoDSF thermal unfolding temperature [4] [°C] | Relative activity of "activated" sample (% initial rate) [5] [%] | Binder | other results |
| --- | --- | --- | --- | --- |
| 2 | 65.2 | ≥ 100 | variant deamidase propeptide Y45G of Chryseobacterium sp-62563 (SEQ ID NO: 2) (other) NQDPNLVAKESNETAMKDFGKTVPVGIEKEDGKFKISFMVTAQPGEIKDSKENAAYISMIKTAVENETPIHVFLKANTNEIAKVDKATDDDIRYFKSVFTKEVKEENRK | – |
| 2 | 73.7 | ≥ 100 | variant deamidase propeptide Y45T of Chryseobacterium sp-62563 (SEQ ID NO: 2) (other) NQDPNLVAKESNETAMKDFGKTVPVGIEKEDGKFKISFMVTAQPTEIKDSKENAAYISMIKTAVENETPIHVFLKANTNEIAKVDKATDDDIRYFKSVFTKEVKEENRK | – |
| 32 | 75.4 | ≥ 100 | variant deamidase propeptide F99K of Chryseobacterium sp-62563 (SEQ ID NO: 2) (other) NQDPNLVAKESNETAMKDFGKTVPVGIEKEDGKFKISFMVTAQPYEIKDSKENAAYISMIKTAVENETPIHVFLKANTNEIAKVDKATDDDIRYFKSVKTKEVKEENRK | – |
| 26 | 76.2 | ≥ 100 | variant deamidase propeptide F38C of Chryseobacterium sp-62563 (SEQ ID NO: 2) (other) NQDPNLVAKESNETAMKDFGKTVPVGIEKEDGKFKISCMVTAQPYEIKDSKENAAYISMIKTAVENETPIHVFLKANTNEIAKVDKATDDDIRYFKSVFTKEVKEENRK | – |
